Test: yeast display, Sf9 membrane polyspecificity reagent, FACS + sequencing; frameworks hold sequencing errors
How it was run: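 After 36–48 hours of galactose induction, yeast (Saccharomyces cerevisiae BJ5465) displaying a synthetic nanobody library were stained at 4 °C for 1 hour with 10% biotinylated, detergent-solubilized Sf9 membrane reagent. Streptavidin microbeads enriched the stained cells before FACS sorting into low and high (top ~1%) gates on anti-HA and streptavidin fluorescence. Each clone's polyreactivity label reflects its gate of origin.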

Sequence	polyreactivity (PSR sort gate)
QVQLVESGGGLVQAGGSLRLSCPASGFTFSYYVMGWYRQSPGKERELVAAISSGGRTYYADSVKGRFTISRDNAKNTVYFQMNSLKPEDTAVYYCAAVRYSNEDDYWGQGTQVTVSS	high polyreactivity
QVQLVESGGGLVQAGGSLRLICAASGFTFRTYAMGWYRQAPGKERELVAAINYSGGSTYYADSVKGRFTISRDNAKNTVYLQMNSVKPEDTAVYYCNKQRDVQVYVRYPMNYWGQGTQVTVSS	low polyreactivity
QVQLVESGGGLVQARGSLRLTCAASGRNFYLNAMGWYRQAPGKERELVAAITWSGGRTYYADSVKGRFTISRDNAKNTVYLQMYSLKPEDTAFYYCAAVPRPGPNTVLTPYVYWGQGTQVTVSS	high polyreactivity
QVQLVESGGGLVQAGGSLRLSCAASGRSFAPYAMGWSRQAPGKERELVAAISLSTTRTYYADSVKGRFTISRDNAKNTVYLQMNSLKPEDTAVYYCAAETFTGYFFLRHDYWGQGTQVTVSS	high polyreactivity
QVHLVESGGGLVQAGGSLRLSCAASGSIFPYYVMGWYRQAPGKERELVAAISSGGNTYYADSVKGRFTISRDNAKNTVYLQMNSLKPEDTAVYYCNADKSYFVLLFGGYDYWGQGTQVTVSS	high polyreactivity
QVQHVESGGGLVQAGGSLRLSCAASVITFYGYTMGWYRQAPGKERELVARIRSRSTSTYYADSVKGRFTISRDNAKNTVDLQMNSLKPEDTAVYYCNADYTNPGSYRKYDYWGQGTQVTVSS	low polyreactivity
QVQLVESGGGLVQAGGSLRLSCAASGIIFPGYVMGWYRQAPGKERELVAAISYSGGRTYYADSVKGRFTISRDNAKNTVYLQMNSLIPEDTAVYYCAARKSYFTSTDRYYGYYYHQSNYLGQGTQVTVSS	high polyreactivity
QVQLVESGGCLVQAGGSLRLSCAASGRTLYRNAMGWYRPAPGKERELVARITWSGASTYYADSVKGRFTISRDNAKNTVYLQMNSLKPEDTAVYYCAAQYLSRRYGPYYTYNYWGQGTQVTVSS	high polyreactivity
QVQVVESGGGLVQAGGSLLLICAASGRTFWPNAMGWYRAAPGKERELVAAINWGGGSTYYADSVKVRFTISRDNAKNAVYLQKNSLKPEDTAVYYCAKSLVPWWYKVEYDYWGQGTQVTVSS	low polyreactivity
QVQLVESVGGLVQAGGSLRLSCAASGITFDRNAMGWYRQAPGKERELVAAISSGGTYADSVKGRFTISRDNAKNTVYLQMNSLKPEDTAVYYCNADTDYIRWIYGYWGQGTQVTVSS	low polyreactivity
QVQLVESGGGLVQAGGSLRLSCAASGSTFIFYAMGWYRQAPGKERELVASITSRAASTYYADSVKGRFTFSRDNAKNTVYFQMNSLKPEVTAVYYCAANFSYTLFWWSSFLLYVYWGQGTQVTVSS	low polyreactivity
QVQVVESGGGLVQAGGSLRLSCAASGRTFDWYLMGWYRQAPGKERELVASIRGTGSTYYADSVKGRFTISRDNAKNTVYLQMNSLKAEDTAVYYCAARPGFLYSKYNYWGQGTQVTVSS	high polyreactivity
QVQLVESGGGLVQAGGSLRLSCAASGRIFRYYAMGWYRQAPGKERELVAAISTAGSTYYADSVMGRFTISRDNAKNTVYLQMNSLKPEDTAVYFCAARTYRSVYGPEYGYWGQGTQVTVSS	high polyreactivity
QVQLVESGGGLVQAGGSLRLSCAASGRTFYYYAMGWNRQAPGTERELVAAITTDGGNTYYADSVKGRFTISRDTAKNTVYLQMNSLKPEDTAVYYCATDGYEYTDYGSSGYDYWGQGTQVTVSS	low polyreactivity
QVHLVESAGGLVQAGGSLRLSSDSSGLIFYRYAMGWYRQAPGKERELVAAITSRSGRTYYADSVKGRFTFSRDNAKNTVYLQMNSLKPEDTAVYYCNAEWRSRYDYWGQGNQVTVSS	high polyreactivity
QDQLVESGGGLVQAGGSLRLSCAASGSILRAYAMGWYRQAPGKERELVADIDWSAGITHYADSVKGRFTISRDNAMNPVYLQMNSLKPEDTAVYYCSARYYWYDYIVYYGDYWGQGTLVTVSS	high polyreactivity
QVKLVESGGGLVQAGCSLRLTCAASGSTSDMKAMGWYRQAPGKERELVAAISYSGGSTYYADSVKGRFTMSRDNAKNTVYLQMNSLKPEDTAVYYCAKQVADRYDYWGQGTEVTVSS	low polyreactivity
QVQLVESGGGLVQAGGSLRLSCAASGFIFGGYAMGWYRQAPGKERELVAAITWSGGNTYYADSVKGRFTISRDNAKNTVYLQMNSLKPEDTAVYYCAADYWTKYGYWGQGTQVTVSS	low polyreactivity
QVQLGESGGGLVQAGGSLRLICAASGLTFSYNDMGWYRQAPGKERELVAGITSNGGSTYYADSVKGRFTITRDNAKNTVYLQMNSLNPEDTAVYYCAAEQYVGVKPFLSDSWGQGNQVTVSS	low polyreactivity
QVQLVESGGGLVQAGGSLRLSCAASGSIFYHNAMGWYRQAPGKERELVAAITSRGGRTTYADSVKGRFTISRDNAKNTVYLQMNSLKPEDTAVYYCNAVYTGYSYISRVDYWGQGTQVTVSS	low polyreactivity
QVQLVESGGGLVQAGGSLRLSCAASGRTFDGYVMGWYRQAPGKERELVAAISWGGSSTYYADSVKGRFTISRDNAKNTVYLQMNSLKPEDTAVYYCAKDTVPYERDYWGQGTQVTVSS	low polyreactivity
QVQLVESGGGLVQAGGSLRLSCAASGSTFDYYAMGWYRQAPGKERELVAAISRTGGRTYYADSVKGRFTISRDNEKNSVYLQMHSLKPEESAVYYCNSVTRIGGGDYDYWGQGTQVTVSS	low polyreactivity

Sequence	polyreactivity (PSR sort gate)
QVPLVESGGGLVQAGGSLRLSCAASGSTFRRYGMGWYREAPGKERELFAAISKGGTRTYYADSVKGRFTISRDNAKNTVYLQMNSLKPEDTAVYYCNKAWYAYGPVYASWYGEYDYWGLGTQVTVSS	high polyreactivity
QVQLVESGGGLVQAGGSLRLSCAASGRTFVYYAMGWYRQAPGKERELVARISSGGSTYYADSVKGRFTISRDNAKNTVYLQMYSLKPEDTAVYYCAADAWYVWEYWWQPEDDYWGQGSQVTVSS	high polyreactivity
QVQLVESGGGLVQAGGSLRLSCAASGSIFKIYAMGWSRQAPGKERELVAAISRSVGSTYADSVKGRFTISRDNAKNTVYLQMNSLKPEDTAVYYCNARYKSRLYPRYDYWGQGTQVTVSS	high polyreactivity
QVQLVESGGGLVQAGGSLRLSCAASGSIFWGNAMGWYRQAPGKEREMVAAITWSGGSTYYADSVKGRFTISRDNAKNTVYLQMNSLKPEDTAVYYCYAVYIGSRRRYEYDYWGQGTQVTVSS	high polyreactivity
QVQLVESGGGLVQAGGSLRLICAASGSTFFDYAMGGYRQAPGKEREFVADIYSNGGSTYYADSVKGRFTFSRDNAKNSVYLQMNSLKPEDTAGYYCAAVLRPRQGRRYDYWGQGTQVTVSS	low polyreactivity
QVQLVESGGGLVQAGGSLRLSCAASGLTFVYYDMGWYRQAPGKERELVADITDGSSTNYADSVKGRFTISRDNAKNTVYLQMYSLKREDTAVYYCAVDAVFQGSLGDYEYDYWGQGTQVTVSS	low polyreactivity
QVQLVESGGGLVQAGGSLRLSCAASGSTFVYYAMGWYRQAPGKERELVAAISWSGTRTYYADSVKGRFTISRDNAKNTVYLQMNSLKPEDTAVYYCAARLRANQVKLYYWGQGTQVTVSS	high polyreactivity
QDQHVESGGGLVQAGGSLRLSCAATGNIFRYYTMGWYRQAPRKERELVAAISWNGGSTYYADSVKGRFTISRDNAKNTVYLQMNSLKPEDTAVYYCNAVQYYEFDYWGQGTQVTVSS	low polyreactivity
QVQLVESRGGLDQAGGSLRLSCAASGSIFGFYAMGWYRQAPGKERELVAAISSDGGSTYYADSVKGRFTISRDNAKNTVYLQMNSLKPEDTAVYYCAAAHGSIFDSTYYEYYYWGQGTQVTVSS	low polyreactivity
QVHLVESGGGLVHAGGSLRVSCAASGYTFHRYAMGWYRQAPGKERELVAAITRGGGSTRYADSVKGRFTISRDNAKYTVYLQMNSLKPEDTAVYYCAAERRTPGRTTYYYWGQGTQVSVSS	high polyreactivity
QVQLVESGGGLVQAGGSLRLSCAASGRIFDGNAMGWYRQAPGKERELVAAISWTGGSTYYADSVKGRFTISRDNAKNTVYLQMNSLKPEDTAVYYCAADSGWWLDQWSWYDYWGQGTQVTVSS	low polyreactivity
QVQLVESGGGLVQAGGSLRLSCAASGSIVYYAMGWYRQAPGKERELVAAINTSGGSTYYADSVKGRFTISRDNAKNTVYLQMNSLKPEDTAVYYCAAVYVGYITGFKRGYWGQGTQVTVSS	high polyreactivity
QVQLVESGGGLVQAGGSLRLSCAASGSTIYNYAMGSYRPAPGKVRELVASITWNGGSTYYADSVKGRFTISRDNAKNTVYLQMNSLKPEDTAVYYCAAEWTWTYPYDYWGQGTQVTVSS	low polyreactivity
QVQLVDSGGGLVQAGVSLRISCAASGIIIRYYGMGWYRQAPGKERELVARIRWTGGSTYYADSVKGRFTISRYNAKNTVYLQMNSLKQEETAVYYCAADIWQYSRIANSHPYDYWGQGTQVTVSS	low polyreactivity
QVQLVESGGGLVEAGGSLRLSCAASVRTFRYYDMGWFRQAPGKQWELVAAITARGGSTYYADSVKGRFTISRDNEKNTDYLQMNSQKPEDTAVYYCNAYPLQIFYLGNRQYNYWRQGTQVTVSS	high polyreactivity
QVQLVESGGGLVQAGGSLRLSCAASGSPFVDNAMGWYRQAPGKEMELVAAIRDGSGGSTRYADSVKGRFTISRDNAKNTVYLQMHSLKPEVTAVYYCAADGYITVNYLRYDYWGQGTQVTVSS	low polyreactivity
QVQLVESGGGLVQAGGSLRLSCAASGFTYSKNAMGWDRQAPAKERELVAVITRRGGSTYYADSVKGRFTISRDNAKNTVYLQMNSLKPEDTAVYYCAAASFTRRDLDYWGQGTQVTVSS	high polyreactivity
QDQLVESGGGIVQAGGSLRLSCAASGFIFSTNAMGWYRQAPGKERELVAAITGRGTNTYYADSVKGRFTISRDNAKNTVYLQMNSLKPEDTAVYYCAADNKDSEDDYWGQGTQVTVSS	high polyreactivity
QVQLVESGGGLVQAGGSLRLSCAASGRIFVYNAMGWYRQAPGKEWELVATITSGGSTYYADSVKGRFTISRDNAMNTVYLQMNSLKPEDTAVYYCAARRWYVHYFAYGYWGQGTQVTVSS	low polyreactivity
QVQLVESGGGLVQAGGSLRLSCAASGSTFAGYVMGWYRQAPGKERELVAAISRSGGSTYYADSVKGRFTISRDNAKNTVYLQMNSLKPEDTAVYYCAARNSPGFPGDYWGHGTQVTVSS	high polyreactivity
QDLLVESGGGLVQAGGSLRLSCAASGYTFGNNAMGWYRQAPGKERELVATISGGGRTKYADSVKGRFTISRDNAKNTVYLQMYSLKPEDTAVYYCNVVQTYYRGSYIYIKYGYWGQGTQVTVSS	high polyreactivity
